The values that follow come from US20260234738A1 (Regeneron, published 2026).

This test addresses SARS-COV-2 RBD extracellular domain expressed with a C-terminal mouse IgG2a (SARS-CoV-2).

B1: mAb10984 (antibody, V domains shown)
VH: EVQLVESGGGLVQPGGSLRLSCAASGLTVNRNYMSWVRQAPGKGLEWVSLIYSGGSTYYADSVKGRFTISRDNSKNTLYLQMNSLRLEDTAVYYCARGELGIPYGMDVWGQGTTVTVSS
VL: QSVLTQPPSVSAAPGQKVTISCSGSSSNIGNNYVSWYQQLPGTAPKLLIYDNNKRPSGIPDRFSGSKSGTSATLGITGLQTGDEADYYCGTWDSSLSAGVFGGGTKLTVLG
A word on the Kd: it is the concentration at which binding is half-saturated. A low value points to a tighter complex. The term t½ denotes how long it takes for the measured level to halve. A higher t½ goes with slow loss. Molecule B1 displayed a Kd of at most 0.0249 nM and a t½ of at least 1160 min.

B2: mAb10966 (antibody, V domains shown)
VH: EVQLVESGGGLVQPGGSLRLSCAASGLTVSSNYMSWVRQAPGKGLEWVSVIYSGGSTFYADSVKGRFTISRDNSKNTLYLQMNSLRPEDTAVYYCAREGRIAATGYGMDVWGQGTTVTVSS
VL: not shown
For the molecule B2, the Kd was at most 0.0249 nM and the t½ is at least 1160 min.

B3: mAb10930 (antibody, V domains shown)
VH: EVQLVESGGGLVQPGRSLRLSCAASGFTFDDYAMYWVRQAPGKGLEWVSGISWNSGSIGYADSVKGRFTISRDNAKNSLYLQMNSLRAADTALYYCAKDKDWNSRGYYYYGMDVWGQGTTVTVSS
VL: not shown
By koff is commonly meant the rate constant with which the complex falls apart. A high value points to a short-lived complex. Broadly, the kon is the second-order rate constant of association. B3 yielded a Kd of at most 0.0431 nM, a koff of at most 1e-05 s⁻¹, a kon of 232000 M⁻¹ s⁻¹ and a t½ of at least 1160 min.

B4: mAb10989 (antibody, V domains shown)
VH: QVQLVQSGAEVKKPGASVKVSCKASGYIFTGYYMHWVRQAPGQGLEWMGWINPNSGGANYAQKFQGRVTLTRDTSITTVYMELSRLRFDDTAVYYCARGSRYDWNQNNWFDPWGQGTLVTVSS
VL: QSALTQPASVSGSPGQSITISCTGTSSDVGTYNYVSWYQQHPGKAPKLMIFDVSNRPSGVSDRFSGSKSGNTASLTISGLQAEDEADYYCSSFTTSSTVVFGGGTKLTVLG
The molecule B4 showed a t½ of 124 min.

B5: mAb10934 (antibody, V domains shown)
VH: not shown
VL: DIQMTQSPSSLSASVGDRVTITCQASQDIWNYINWYQQKPGKAPKLLIYDASNLKTGVPSRFSGSGSGTDFTFTISSLQPEDIATYYCQQHDDLPPTFGQGTKVEIKR
Turning to B5, the affinity, expressed as Kd, was 0.0832 nM and the t½ was 98.3 min.

B6: mAb10967 (antibody, V domains shown)
VH: EVQLVESGGGLVQPGGSLRLSCAASGFTVSSNYMSWVRQAPGKGLEWVSVIYPGGSTFYADSVKGRFTISRDNSKNTLYLQMNSLRAEDTAVYYCARDQRDFAWGQGTLVTVSS
VL: DIQMTQSPSSLSASVGDRVTITCQASQDISNYLNWYQQKPGKAPKLLIYDASNLETGVPSRFSGSGSGTDFTFTISGLQPEDIATYYCQQYDNLPPTFGQGTRLEIKR
B6 yielded a Kd of at most 0.0251 nM and a t½ of at least 1160 min.

B7: mAb10935 (antibody, V domains shown)
VH: EVQLVESGGGLVQPGGSLRLSCAASGFTVSSNYMSWVRQAPGKGLEWVSLIYSGGSTYYADSVKGRFTISRHNSKNTLYLQMNSLRSEDTAVYYCARVPLGDYYYGMDVWGQGTTVTVSS
VL: DIQMTQSPSSLSASVGDRVTITCQASQDINKYLNWYQQKPGKAPKLLIYDASNLETGVPSRFSGSGSGTDFTFTISSLQPEDIATYYCQQSDNLPLTFGGGTKVEIKR
B7 yielded a Kd of at most 0.0261 nM, an off-rate (koff) of at most 1e-05 s⁻¹, a kon of 383000 M⁻¹ s⁻¹ and a t½ of at least 1160 min.

B8: mAb10938 (antibody, V domains shown)
VH: EVQLVESGGGLVQPGGSLRLSCAVSGFTVSSNYMSWVRQAPGKGLEWVSLIYSGGSTFYADSVKGRFTISRHNSKNTLYLQMNSLRAEDTAVYYCAREGGYSYDYNYWGQGTLVTVSS
VL: DIQMTQSPSSLSASVGDRVTITCQASQDIRNYLNWYQQKPGKAPKLLIYDASNLETGVPSRFSGIGSGTDFTFTISSLQPEDIATYYCQQYDNLPITFGQGTRLEIKR
The molecule B8 registered a Kd of at most 0.0322 nM and a t½ of at least 1160 min.

B9: mAb10923 (antibody, V domains shown)
VH: QVQLVQSGAEVKKPGASVKVSCKASGYTFINYYIHWVRQAPGQGLEWMGWINPNSGGTNYAQKFQGRVTMTRDTSISTAYMELSRLRSDDTAVYYCAIITIFGVVTWFDPWGQGTLVTVSS
VL: not shown
B9 showed a Kd of 0.0435 nM, a koff of 2.83e-05 s⁻¹, a kon of 651000 M⁻¹ s⁻¹ and a t½ of 408 min.

B10: mAb10939 (antibody, V domains shown)
VH: EVQLVESGGGLVQPGGSLRLSCAASGLTVSSNYMNWVRQVPGKGLEWVSVIYSGGSKFYVDSVKGRFTISRHNSKNTLYLQMNSLRPEDTAVYYCTRDAQYYGMDVWGQGTTVTVSS
VL: DIQMTQSPSSLSASVGDRVTITCRASQSISTYLHWYQQKPGEAPKLLIYAASSLQSGVPSRFSGSGSGTDFTLTISSLQPEDFATYYCQQSYSTPPEIFGQGTKLEIKR
Consider B10, for which binding was put at a Kd of 0.0387 nM, the koff was 1.15e-05 s⁻¹, the kon amounted to 299000 M⁻¹ s⁻¹ and the t½ turned out to be 1000 min.

B11: mAb10982 (antibody, V domains shown)
VH: EVQLVESGGGLVQPGGSLRLSCAASGLTVSSNYMSWVRQAPGKGLEWVSVIYSGGTTYYADSVKGRFTISRHNSKNTLSLQMNSLRAEDTAVYYCARGEGANYYGMDVWGQGTTVTVSS
VL: QSVLTQPPSVSGAPGQRVTISCTGSSSNIGTGYDVHWYQQLPGTAPKLLIYGNSNRPSGVPDRFSGSKSGTSASLAITGLQAEDEADYYCQSYDSSLSGYVVFGGGTKLTVLG
Molecule B11 came in with a Kd of 0.0544 nM, a koff of 1.69e-05 s⁻¹, a kon of 310000 M⁻¹ s⁻¹ and a t½ of 684 min.

B12: mAb10985 (antibody, V domains shown)
VH: EVQLVESGGGLVQPGRSLRLSCAASGFTFDDYAMHWVRQAPGKGLEWVSGISWNRGSIGYADSVKGRFTISRDNAKNSLYLQMSSLRAEDTALYYCAKDGERWDSVVVPSARNGMDVWGQGTTVTVSS
VL: QSVLTQPPSVSGAPGQRVTISCTGSSSNIGAGYDVHWYQQLPGTAPKLLIYGNSNRPSGVPDRFSGSKSGTSASLAITGLQAEDEADYYCQSYDSSLSGSYVFGTGTKVTVLG
B12: the Kd worked out at 0.0117 nM and the t½ came out at 911 min.

B13: mAb10986 (antibody, V domains shown)
VH: EVQLVESGGGLVQPGGSLRLSCAASEFTVSSNYMSWVRQAPGKGLEWVSVIYSGGSTFYADSVKGRFTISRDNSKNTLYLQMNSLRAEDTAVYYCARALPYGDLHFDYWGQGTLVTVSS
VL: QSVLTQPPSVSGAPGQRVTISCTGSSSNIGTGYDVHWYQQLPGTAPKLLIYGNTNRPSGVPDRFSGSKSGTSASLAITGLQAEDEADYYCQSYDSSLSDSYVFGTGTKVTVLG
Molecule B13 came in with a Kd of at most 0.0158 nM and a t½ of at least 1160 min.

B14: mAb10964 (antibody, V domains shown)
VH: QVQLQESGPGLVKPSETLSLTCTVSGGSINNYYWIWIRQPPGKGLEWIGYIYHSGSTNYNPSLKSRVTISVDTSKNQFSLKVSSVTAADTAVYYCANMVRGVYEDDYWGQGTLVTVSS
VL: DIQMTQSPSSLSASVGDRVTITCRASQSISNYLNWYQQKPGKAPKLLIFAASSLRSGVPSRFSGSGSGTDFTLTISSLHPEDFATYYCQQNYNTPLTFGPGTKVDIKR
B14 came in with a Kd of at most 0.007 nM and a t½ of at least 1160 min.

B15: mAb10936 (antibody, V domains shown)
VH: QVQLVESGGGVVQPGRSLRLSCAASGFTFRNYGMHWVRQAPGKGLEWVSVIWYDGSNRYYADSVKGRFTISRDTSKNTLYLQMNSLRAEDTAVYYCARDPPITGTTGGDAFDIWGQGTMVTVSS
VL: not shown
Consider B15, for which the Kd is at most 0.0153 nM, the dissociation rate constant (koff) was at most 1e-05 s⁻¹, the kon stood at 652000 M⁻¹ s⁻¹ and the t½ is at least 1160 min.

B16: mAb10937 (antibody, V domains shown)
VH: QITLKESGPTLVKPTQTLTLTCTFSGFSLSTNVVGVGWIRQPPGKALEWLALIYWNDDKRYSPSLKSRLTITKDTSKNQVVLTMTNMDPVDTATYYCAHGPTGDYFDYWGQGTLVTVSS
VL: not shown
The molecule B16 had a Kd of 0.114 nM, a koff of 7.28e-05 s⁻¹, a kon of 639000 M⁻¹ s⁻¹ and a t½ of 159 min.

B17: mAb10913 (antibody, V domains shown)
VH: EVQLVESGGGLVQPGGSLRLSCAASGFTFRNYEMNWVRQAPGKGLEWVSYITSSGSTMYYADSVKGRFTISRDNAKNSLYLQMNSLRAEDTAVYYCARDGFYYYYAMDVWGQGTTVTVSS
VL: QSVLTQPPSVSAAPGQKVTISCSGSSSNIGNNYVSWYQQLPGTAPKLLIYDNNKRPSGIPDRFSGSKSGTSATLGITGLQTGDEADYYCGTWDSSLSVGRVFGTGTKVTVLG
Consider B17, for which the Kd came to 0.244 nM, the koff stood at 0.000152 s⁻¹, the kon came out at 623000 M⁻¹ s⁻¹ and the t½ came out at 76.1 min.

B18: mAb10921 (antibody, V domains shown)
VH: EVQLVESGGGLVQPGGSLRLSCAASGITVSSNYMSWVRQAPGKGLEWVSVIYSGGSTFYADSVKGRFTISRHNSKNTLYLQMNSLRAEDTAVYYCARERNFDAFDIWGQGTMVTVSS
VL: DIQMTQSPSSVSASVGDRVTITCRASQGISSWLAWYQQKPGKAPKLLIYAASSLQSGVPSRFSGSGSGTDFTLTISSLQPEDFATYYCQQANSFPLFTFGPGTKVDIKR
B18: the Kd was at most 0.0375 nM, the koff was at most 1e-05 s⁻¹ and the t½ is at least 1160 min.

B19: mAb10920 (antibody, V domains shown)
VH: QVQLVESGGGVVQPGRSLRLSCAASGFTFSYYGMHWVRQAPGKGLEWVAVIWYDGSNKFYADSVKGRFTISRDNSKNTLYLQMNSLRAEDTAVYYCAAARPGYYYGMDVWGQGTTVTVSS
VL: DIQMTQSPSSLSASVGDRVTITCRASQGISNYLAWFQQKPGKAPNSLIYAASSLQRGVPSKFSGSGSGTDFTLTISSLQPEDFATYYCQQYNSYPRTFGQGTKVEIKR
The molecule B19 came in with a dissociation constant Kd of 0.416 nM and a t½ of 39.5 min.

B20: mAb10932 (antibody, V domains shown)
VH: EVQLVESGGGLVQSGGSLRLSCAASGLTVSSNYMSWVRQAPGKGLEWVSVIYSGGSTFYSDSVKGRFTISRHNSKNTLYLQMNSLRAEDTAVYYCARARGDAFDIWGQGTMVTVSS
VL: not shown
As to B20, the Kd is at most 0.0413 nM, the koff was at most 1e-05 s⁻¹, the kon turned out to be 242000 M⁻¹ s⁻¹ and the t½ is at least 1160 min.

B21: mAb10971 (antibody, V domains shown)
VH: EVQLVESGGGLIQPGGSLRLSCAASGVTVSSNYMSWVRQAPGKGLEWVSVIYSGGSTFYSDSVKGRFSISRDNSKNTLYLQMNSLRAEDTAVYYCARDLYYYGMDVWGQGTTVTVSS
VL: DIQLTQSPSFLSASVGDRVTITCRASQGISTYLAWYQQKPGKAPKLLIYAASTLQSGVPSRFSGSGSGTEFTLTISSLQPEDFATYYCQQLDSYPGLTFGGGTKVEIKR
In turn, B21 returned a Kd of at most 0.0253 nM, a koff of at most 1e-05 s⁻¹, a kon of 395000 M⁻¹ s⁻¹ and a t½ of at least 1160 min.
